# Measured values taken from US20100305031A1 (Daiichi Sankyo, published 2010).
# Bridges are numbered along the chain shown (N, C = ends). Where no end group is shown, it is not given here.
# Target: human type recombinant neutral endopeptidase (hNEP, manufactured by R&D Systems, Inc., U.S.A.) (human, UniProt P08473 52-750)
# Test: cell-based or functional assay
# human type recombinant neutral endopeptidase (hNEP, manufactured by R&D Systems, Inc., U.S.A.), sequence (P08473 52-750 limits assumed): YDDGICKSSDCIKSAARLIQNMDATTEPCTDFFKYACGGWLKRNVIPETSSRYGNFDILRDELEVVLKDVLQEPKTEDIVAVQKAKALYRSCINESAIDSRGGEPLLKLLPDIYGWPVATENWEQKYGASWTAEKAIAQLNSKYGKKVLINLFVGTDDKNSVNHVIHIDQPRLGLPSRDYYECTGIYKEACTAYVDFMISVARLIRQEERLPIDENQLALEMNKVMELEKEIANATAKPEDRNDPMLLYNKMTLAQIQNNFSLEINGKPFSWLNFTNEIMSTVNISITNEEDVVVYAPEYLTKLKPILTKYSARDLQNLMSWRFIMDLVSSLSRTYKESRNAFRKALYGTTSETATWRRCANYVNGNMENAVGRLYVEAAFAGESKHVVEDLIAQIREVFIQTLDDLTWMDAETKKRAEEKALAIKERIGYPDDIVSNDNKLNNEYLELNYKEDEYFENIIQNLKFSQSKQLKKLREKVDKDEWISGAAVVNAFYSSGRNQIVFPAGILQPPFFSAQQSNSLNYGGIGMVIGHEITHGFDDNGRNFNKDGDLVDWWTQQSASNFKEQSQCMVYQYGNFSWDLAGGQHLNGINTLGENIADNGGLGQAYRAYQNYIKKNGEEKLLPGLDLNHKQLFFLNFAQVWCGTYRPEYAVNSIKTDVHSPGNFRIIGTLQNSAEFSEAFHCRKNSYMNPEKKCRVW
row,Binder,Residual Rate (%) of the unchanged peptide after 1 hour at 37° C. with hNEP (HPLC) [%]
1,RPQLKAPPKKSEKRQQVCFGLKLDRIGSMSGLGC (disulfide 18-34 (inferred)) [Chimeric CNP (A)],84.3
2,CFGLKLDRIGSMSGLGCVQQRKESKKPPAKLQPR (disulfide 1-17 (inferred)) [Chimeric CNP (B)],83.8
3,GLSKGCFGLKLDRIGSMSGLGC (disulfide 6-22) [Native CNP-22],16.7
